{"source": "paper PMC2576564", "about": "(Frontiers in Molecular Neuroscience, 2008)", "proteins": {"B1": {"name": "extracellular domain of human DPP6-L (residues 117–865) (domain or fragment)", "chain": "not shown", "modifications": "glycosylated"}}, "target": "the molecule itself", "assay": "SEC; Superdex 200 16/60 column, after Ni-NTA purification of the secreted protein", "data": [{"protein": "B1", "values": [{"measurement": "stoichiometry N", "result": 2}]}]}
